Where “and” joins values, the source holds several entries; their conditions need not be identical. Equal values may be shown once.
Key:
[1] = target: T1, human CD22-beta-ECD-His tagged soluble antigen (human, UniProt P20273 22-681); assay: SPR (BIACORE 3000), antibody coupled to the chip, soluble CD22-beta-ECD-His injected, 25 C
T1 construct: also called soluble CD22 extracellular domain (ECD); Soluble Human CD22
T1 sequence: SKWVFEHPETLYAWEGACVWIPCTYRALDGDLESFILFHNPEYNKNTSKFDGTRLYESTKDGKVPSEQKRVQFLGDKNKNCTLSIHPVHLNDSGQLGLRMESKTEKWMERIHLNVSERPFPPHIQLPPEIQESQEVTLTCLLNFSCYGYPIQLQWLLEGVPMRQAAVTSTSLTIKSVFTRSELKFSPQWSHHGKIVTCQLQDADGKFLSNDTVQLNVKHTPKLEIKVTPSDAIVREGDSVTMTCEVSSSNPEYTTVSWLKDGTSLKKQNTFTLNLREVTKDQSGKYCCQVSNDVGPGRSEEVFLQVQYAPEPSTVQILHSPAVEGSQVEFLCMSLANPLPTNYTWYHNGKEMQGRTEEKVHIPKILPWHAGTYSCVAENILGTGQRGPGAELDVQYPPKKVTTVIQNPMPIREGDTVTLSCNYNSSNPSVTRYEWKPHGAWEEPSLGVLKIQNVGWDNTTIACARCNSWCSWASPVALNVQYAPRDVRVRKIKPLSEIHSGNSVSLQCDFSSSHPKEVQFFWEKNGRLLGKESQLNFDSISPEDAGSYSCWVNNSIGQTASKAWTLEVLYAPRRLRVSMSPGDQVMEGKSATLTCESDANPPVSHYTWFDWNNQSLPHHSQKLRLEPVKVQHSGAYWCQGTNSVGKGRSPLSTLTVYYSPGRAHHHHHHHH
Description: The binding affinity of murine and humanized 10F4 antibody for soluble CD22 extracellular domain (ECD) was determined by surface plasmon resonance measurement using a BIACORE® 3000 system (Biacore, Inc., Piscataway, N.J.). Briefly, carboxymethylated dextran biosensor chips (CMS, Biacore Inc.) were activated with N-ethyl-N′-(3-dimethylaminopropyl)-carbodiimide hydrochloride (EDC) and N-hydroxysuccinimide (NHS) according to the supplier's instructions. These activated chips were coated with anti-CD22 IgG1 antibody 10F4 (murine or humanized) by dilution to 5 μg/ml with 10 mM sodium acetate, pH 4.8, before injection at a flow rate of […] to achieve approximately 500 response units (RU) of coupled antibody. Next, 1M ethanolamine was injected to block unreacted groups. […] Association rates (kₒₙ) and dissociation rates (koff) were calculated using a simple one-to-one Langmuir binding model (BIAevaluation Software version 3.2). The equilibrium dissociation constant (Kd) was calculated as the ratio koff/kₒₙ. Anti-CD22 antibody, RFB4, was used as a control (Chemicon International, Inc., Temecula, Calif., catalog no. CBL147).

[2] = target: T2, cynomolgus monkey (cyno) CD22 expressed on the surface of CHO cells (cynomolgus monkey); assay: cell-based competitive binding of 125I-labelled against unlabelled antibody on CHO cells, 4 h at 4 C, Scatchard analysis
T2 construct: residues 1-19 (signal) should be removed
T2 chain: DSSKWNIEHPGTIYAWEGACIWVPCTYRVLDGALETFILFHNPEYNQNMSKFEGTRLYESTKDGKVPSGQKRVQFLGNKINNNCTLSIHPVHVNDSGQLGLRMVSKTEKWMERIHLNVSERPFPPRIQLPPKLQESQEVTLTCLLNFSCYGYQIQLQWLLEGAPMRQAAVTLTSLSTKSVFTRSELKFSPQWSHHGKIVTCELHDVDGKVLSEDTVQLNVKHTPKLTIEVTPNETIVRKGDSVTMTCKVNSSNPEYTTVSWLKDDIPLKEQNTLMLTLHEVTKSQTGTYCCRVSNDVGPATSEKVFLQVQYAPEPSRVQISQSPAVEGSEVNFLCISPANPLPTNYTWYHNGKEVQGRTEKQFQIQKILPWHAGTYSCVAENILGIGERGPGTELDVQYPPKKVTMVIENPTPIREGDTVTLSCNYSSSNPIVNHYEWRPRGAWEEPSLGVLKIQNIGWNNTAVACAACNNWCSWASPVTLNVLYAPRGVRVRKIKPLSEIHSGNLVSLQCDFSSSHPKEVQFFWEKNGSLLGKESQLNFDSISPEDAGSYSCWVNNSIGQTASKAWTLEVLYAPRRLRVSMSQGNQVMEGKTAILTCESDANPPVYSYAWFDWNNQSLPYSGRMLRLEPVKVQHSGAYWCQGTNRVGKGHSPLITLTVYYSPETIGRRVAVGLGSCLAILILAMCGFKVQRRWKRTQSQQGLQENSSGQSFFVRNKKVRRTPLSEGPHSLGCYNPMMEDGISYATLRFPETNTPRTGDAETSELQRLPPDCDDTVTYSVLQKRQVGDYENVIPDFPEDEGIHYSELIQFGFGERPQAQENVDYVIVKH
Description: (§1) Briefly, CHO cells stably expressing full length human CD22 (SEQ ID NO:27) or cynomolgus monkey (cyno) CD22 (SEQ ID NO:31). […] A cell-based, competitive binding assay was performed using serially diluted, unlabeled anti-CD22 antibody. Antibodies were allowed to bind to the cells for 4 hours at 4° C. Binding affinity, KD, of the antibodies was determined in accordance with standard Scatchard analysis performed utilizing a non-linear curve fitting program (see, for example, Munson et al., Anal Biochem, 107: 220-239, 1980).

[3] = target: T3, CD22 expressed on the surface of BJAB-lucs cells (human, UniProt P20273 20-847); assay: FACS on BJAB-lucs cells; biotinylated goat anti-huFc plus Streptavidin-PE
T3 construct: whole, on cells; also called CD22 expressed on BJAB-lucs cells
T3 sequence (looked up): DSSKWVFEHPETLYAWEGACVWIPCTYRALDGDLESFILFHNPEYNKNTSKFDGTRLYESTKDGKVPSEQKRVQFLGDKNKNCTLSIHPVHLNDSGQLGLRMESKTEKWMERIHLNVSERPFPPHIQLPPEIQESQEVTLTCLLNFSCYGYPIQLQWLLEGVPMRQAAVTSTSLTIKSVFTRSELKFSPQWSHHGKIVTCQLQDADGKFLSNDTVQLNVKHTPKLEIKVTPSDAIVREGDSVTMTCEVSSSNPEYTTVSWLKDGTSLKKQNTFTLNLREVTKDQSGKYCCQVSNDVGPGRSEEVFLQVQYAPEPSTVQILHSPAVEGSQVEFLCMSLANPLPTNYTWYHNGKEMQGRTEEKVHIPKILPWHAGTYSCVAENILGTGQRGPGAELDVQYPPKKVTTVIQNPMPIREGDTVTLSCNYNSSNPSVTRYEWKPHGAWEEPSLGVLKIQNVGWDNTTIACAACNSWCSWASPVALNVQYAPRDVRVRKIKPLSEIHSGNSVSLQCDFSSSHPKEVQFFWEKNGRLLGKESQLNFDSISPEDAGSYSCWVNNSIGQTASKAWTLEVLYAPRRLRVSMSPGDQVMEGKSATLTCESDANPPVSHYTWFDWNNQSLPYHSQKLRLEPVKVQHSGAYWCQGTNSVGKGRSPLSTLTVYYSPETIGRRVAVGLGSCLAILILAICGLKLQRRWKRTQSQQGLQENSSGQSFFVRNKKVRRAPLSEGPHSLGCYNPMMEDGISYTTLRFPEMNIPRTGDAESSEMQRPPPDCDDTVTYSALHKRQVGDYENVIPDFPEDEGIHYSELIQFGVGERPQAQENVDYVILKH
Text: Anti-CD22 antibody bound to the cell surface was detected using biotinylated goat anti-huFc plus Streptavidin-PE.

[4] = target: T2, cynomolgus monkey (cyno) CD22 expressed …; assay: cell-based competitive binding of 125I-labelled against unlabelled antibody on CHO cells, Scatchard analysis; repeated assays
Description: as §1

B1: Chimeric 10F4 (antibody, V domains shown)
VH: QVQLQQSGPELVKPGASVKISCKASGYEFSRSWMNWVKQRPGQGREWIGRIYPGDGDTNYSGKFKGKATLTADKSSSTAYMQLSSLTSVDSAVYFCARDGSSWDWYFDVWGAGTTVTVSS
VL: DILMTQTPLSLPVSLGDQASISCRSSQSIVHSNGNTFLEWYLQKPGQSPKLLIYKVSNRFSGVPDRFSGSGSGTDFTLKISRVEAEDLGVYYCFQGSQFPYTFGGGTKVEIK
notes: also called murine chimeric 10F4
Kd [1]: 16 nM | koff [1]: 0.00042 s⁻¹ | kon [1]: 26000 M⁻¹ s⁻¹

B2: humanized 10F4 version 2 antibody (antibody, human IgG1, kappa)
heavy: not shown
light: DIQMTQSPSSLSASVGDRVTITCRSSQSIVHSVGNTFLEWYQQKPGKAPKLLIYKVSNRFSGVPSRFSGSGSGTDFTLTISSLQPEDFATYYCFQGSQFPYTFGQGTKVEIKRTVAAPSVFIFPPSDEQLKSGTASVVCLLNNFYPREAKVQWKVDNALQSGNSQESVTEQDSKDSTYSLSSTLTLSKADYEKHKVYACEVTHQGLSSPVTKSFNRGEC
notes: Differs from hu10F4v1 by N28V (Kabat) in HVR-L1; Mature protein identical to hu10F4v3; also called humanized 10F4v2; hu10F4v2
Kd [2]: 2.1 nM

B3: thio hu LC(V205C) 10F4v3-MCvcPAB-MMAE (antibody, human IgG1, kappa)
heavy: not shown
light: DIQMTQSPSSLSASVGDRVTITCRSSQSIVHSVGNTFLEWYQQKPGKAPKLLIYKVSNRFSGVPSRFSGSGSGTDFTLTISSLQPEDFATYYCFQGSQFPYTFGQGTKVEIKRTVAAPSVFIFPPSDEQLKSGTASVVCLLNNFYPREAKVQWKVDNALQSGNSQESVTEQDSKDSTYSLSSTLTLSKADYEKHKVYACEVTHQGLSSPCTKSFNRGEC
modifications: MC-val-cit-PAB-MMAE on the engineered Cys at Kabat position 205 (sequential position 210)
notes: Cysteine engineered IgG1 (ThioMab) drug conjugate; also called thio hu LC-10F4v3-MC-val-cit-PAB-MMAE; Thio 10F4v3-LC(V205C)-MCvcPAB-MMAE
binding result [3]: binds

B4: humanized 10F4 version 1 antibody (antibody, IgG1, V domains shown)
VH: EVQLVESGGGLVQPGGSLRLSCAASGYEFSRSWMNWVRQAPGKGLEWVGRIYPGDGDTNYSGKFKGRFTISADTSKNTAYLQMNSLRAEDTAVYYCARDGSSWDWYFDVWGQGTLVTVSS
VL: DIQMTQSPSSLSASVGDRVTITCRSSQSIVHSNGNTFLEWYQQKPGKAPKLLIYKVSNRFSGVPSRFSGSGSGTDFTLTISSLQPEDFATYYCFQGSQFPYTFGQGTKVEIKR
notes: only variable domains are tied to v1; also called humanized 10F4v1; hu10F4v1
Kd [4]: 1.4 nM and 1.8 nM

From patent US20130171170A1 (published 2013)
